PMC11446282

B1: CDCA4 K44: CDCA4, K44 to alanine (protein, UniProt Q9BXL8 1-241, looked up, variant K44A)
Cell division …: MFARGLKRKCVGHEEDVEGALAGLKTVSSYSLQRQSLLDMSLVALQLCHMLVEPNLCRSVLIANTVRQIQEEMTQDGTWRTVAPQAAERAPLDRLVSTEILCRAAWGQEGAHPAPGLGDGHTQGPVSDLCPVTSAQAPRHLQSSAWEMDGPRENRGSFHKSLDQIFETLETKNPSCMEELFSDVDSPYYDLDTVLTGMMGGARPGPCEGLEGLAPATPGPSSSCKSDLGELDHVVEILVET
B2: CDCA4 N55: CDCA4, N55 to alanine (protein, UniProt Q9BXL8 1-241, looked up, variant N55A)
Cell division …: MFARGLKRKCVGHEEDVEGALAGLKTVSSYSLQRQSLLDMSLVKLQLCHMLVEPALCRSVLIANTVRQIQEEMTQDGTWRTVAPQAAERAPLDRLVSTEILCRAAWGQEGAHPAPGLGDGHTQGPVSDLCPVTSAQAPRHLQSSAWEMDGPRENRGSFHKSLDQIFETLETKNPSCMEELFSDVDSPYYDLDTVLTGMMGGARPGPCEGLEGLAPATPGPSSSCKSDLGELDHVVEILVET
B3: CDCA4 V52: CDCA4, V52 to alanine (protein, UniProt Q9BXL8 1-241, looked up, variant V52A)
Cell division …: MFARGLKRKCVGHEEDVEGALAGLKTVSSYSLQRQSLLDMSLVKLQLCHMLAEPNLCRSVLIANTVRQIQEEMTQDGTWRTVAPQAAERAPLDRLVSTEILCRAAWGQEGAHPAPGLGDGHTQGPVSDLCPVTSAQAPRHLQSSAWEMDGPRENRGSFHKSLDQIFETLETKNPSCMEELFSDVDSPYYDLDTVLTGMMGGARPGPCEGLEGLAPATPGPSSSCKSDLGELDHVVEILVET
B4: CDCA4 P54: CDCA4, P54 to alanine (protein, UniProt Q9BXL8 1-241, looked up, variant P54A)
Cell division …: MFARGLKRKCVGHEEDVEGALAGLKTVSSYSLQRQSLLDMSLVKLQLCHMLVEANLCRSVLIANTVRQIQEEMTQDGTWRTVAPQAAERAPLDRLVSTEILCRAAWGQEGAHPAPGLGDGHTQGPVSDLCPVTSAQAPRHLQSSAWEMDGPRENRGSFHKSLDQIFETLETKNPSCMEELFSDVDSPYYDLDTVLTGMMGGARPGPCEGLEGLAPATPGPSSSCKSDLGELDHVVEILVET
B5: CDCA4 L45: CDCA4, L45 to alanine (protein, UniProt Q9BXL8 1-241, looked up, variant L45A)
Cell division …: MFARGLKRKCVGHEEDVEGALAGLKTVSSYSLQRQSLLDMSLVKAQLCHMLVEPNLCRSVLIANTVRQIQEEMTQDGTWRTVAPQAAERAPLDRLVSTEILCRAAWGQEGAHPAPGLGDGHTQGPVSDLCPVTSAQAPRHLQSSAWEMDGPRENRGSFHKSLDQIFETLETKNPSCMEELFSDVDSPYYDLDTVLTGMMGGARPGPCEGLEGLAPATPGPSSSCKSDLGELDHVVEILVET
B6: CDCA4 R58: CDCA4, R58 to alanine (protein, UniProt Q9BXL8 1-241, looked up, variant R58A)
Cell division …: MFARGLKRKCVGHEEDVEGALAGLKTVSSYSLQRQSLLDMSLVKLQLCHMLVEPNLCASVLIANTVRQIQEEMTQDGTWRTVAPQAAERAPLDRLVSTEILCRAAWGQEGAHPAPGLGDGHTQGPVSDLCPVTSAQAPRHLQSSAWEMDGPRENRGSFHKSLDQIFETLETKNPSCMEELFSDVDSPYYDLDTVLTGMMGGARPGPCEGLEGLAPATPGPSSSCKSDLGELDHVVEILVET
B7: CDCA4 V60: CDCA4, V60 to alanine (protein, UniProt Q9BXL8 1-241, looked up, variant V60A)
Cell division …: MFARGLKRKCVGHEEDVEGALAGLKTVSSYSLQRQSLLDMSLVKLQLCHMLVEPNLCRSALIANTVRQIQEEMTQDGTWRTVAPQAAERAPLDRLVSTEILCRAAWGQEGAHPAPGLGDGHTQGPVSDLCPVTSAQAPRHLQSSAWEMDGPRENRGSFHKSLDQIFETLETKNPSCMEELFSDVDSPYYDLDTVLTGMMGGARPGPCEGLEGLAPATPGPSSSCKSDLGELDHVVEILVET
B8: CDCA4 S59: CDCA4, S59 to alanine (protein, UniProt Q9BXL8 1-241, looked up, variant S59A)
Cell division …: MFARGLKRKCVGHEEDVEGALAGLKTVSSYSLQRQSLLDMSLVKLQLCHMLVEPNLCRAVLIANTVRQIQEEMTQDGTWRTVAPQAAERAPLDRLVSTEILCRAAWGQEGAHPAPGLGDGHTQGPVSDLCPVTSAQAPRHLQSSAWEMDGPRENRGSFHKSLDQIFETLETKNPSCMEELFSDVDSPYYDLDTVLTGMMGGARPGPCEGLEGLAPATPGPSSSCKSDLGELDHVVEILVET
B9: CDCA4 L61: CDCA4, L61 to alanine (protein, UniProt Q9BXL8 1-241, looked up, variant L61A)
Cell division …: MFARGLKRKCVGHEEDVEGALAGLKTVSSYSLQRQSLLDMSLVKLQLCHMLVEPNLCRSVAIANTVRQIQEEMTQDGTWRTVAPQAAERAPLDRLVSTEILCRAAWGQEGAHPAPGLGDGHTQGPVSDLCPVTSAQAPRHLQSSAWEMDGPRENRGSFHKSLDQIFETLETKNPSCMEELFSDVDSPYYDLDTVLTGMMGGARPGPCEGLEGLAPATPGPSSSCKSDLGELDHVVEILVET
B10: CDCA4 N64: CDCA4, N64 to alanine (protein, UniProt Q9BXL8 1-241, looked up, variant N64A)
Cell division …: MFARGLKRKCVGHEEDVEGALAGLKTVSSYSLQRQSLLDMSLVKLQLCHMLVEPNLCRSVLIAATVRQIQEEMTQDGTWRTVAPQAAERAPLDRLVSTEILCRAAWGQEGAHPAPGLGDGHTQGPVSDLCPVTSAQAPRHLQSSAWEMDGPRENRGSFHKSLDQIFETLETKNPSCMEELFSDVDSPYYDLDTVLTGMMGGARPGPCEGLEGLAPATPGPSSSCKSDLGELDHVVEILVET
B11: CDCA4 C57: CDCA4, C57 to alanine (protein, UniProt Q9BXL8 1-241, looked up, variant C57A)
Cell division …: MFARGLKRKCVGHEEDVEGALAGLKTVSSYSLQRQSLLDMSLVKLQLCHMLVEPNLARSVLIANTVRQIQEEMTQDGTWRTVAPQAAERAPLDRLVSTEILCRAAWGQEGAHPAPGLGDGHTQGPVSDLCPVTSAQAPRHLQSSAWEMDGPRENRGSFHKSLDQIFETLETKNPSCMEELFSDVDSPYYDLDTVLTGMMGGARPGPCEGLEGLAPATPGPSSSCKSDLGELDHVVEILVET
B12: CDCA4 I62: CDCA4, I62 to alanine (protein, UniProt Q9BXL8 1-241, looked up, variant I62A)
Cell division …: MFARGLKRKCVGHEEDVEGALAGLKTVSSYSLQRQSLLDMSLVKLQLCHMLVEPNLCRSVLAANTVRQIQEEMTQDGTWRTVAPQAAERAPLDRLVSTEILCRAAWGQEGAHPAPGLGDGHTQGPVSDLCPVTSAQAPRHLQSSAWEMDGPRENRGSFHKSLDQIFETLETKNPSCMEELFSDVDSPYYDLDTVLTGMMGGARPGPCEGLEGLAPATPGPSSSCKSDLGELDHVVEILVET
B13: CDCA4 Q46: CDCA4, Q46 to alanine (protein, UniProt Q9BXL8 1-241, looked up, variant Q46A)
Cell division …: MFARGLKRKCVGHEEDVEGALAGLKTVSSYSLQRQSLLDMSLVKLALCHMLVEPNLCRSVLIANTVRQIQEEMTQDGTWRTVAPQAAERAPLDRLVSTEILCRAAWGQEGAHPAPGLGDGHTQGPVSDLCPVTSAQAPRHLQSSAWEMDGPRENRGSFHKSLDQIFETLETKNPSCMEELFSDVDSPYYDLDTVLTGMMGGARPGPCEGLEGLAPATPGPSSSCKSDLGELDHVVEILVET
B14: CDCA4 E53: CDCA4, E53 to alanine (protein, UniProt Q9BXL8 1-241, looked up, variant E53A)
Cell division …: MFARGLKRKCVGHEEDVEGALAGLKTVSSYSLQRQSLLDMSLVKLQLCHMLVAPNLCRSVLIANTVRQIQEEMTQDGTWRTVAPQAAERAPLDRLVSTEILCRAAWGQEGAHPAPGLGDGHTQGPVSDLCPVTSAQAPRHLQSSAWEMDGPRENRGSFHKSLDQIFETLETKNPSCMEELFSDVDSPYYDLDTVLTGMMGGARPGPCEGLEGLAPATPGPSSSCKSDLGELDHVVEILVET
B15: CDCA4 L56: CDCA4, L56 to alanine (protein, UniProt Q9BXL8 1-241, looked up, variant L56A)
Cell division …: MFARGLKRKCVGHEEDVEGALAGLKTVSSYSLQRQSLLDMSLVKLQLCHMLVEPNACRSVLIANTVRQIQEEMTQDGTWRTVAPQAAERAPLDRLVSTEILCRAAWGQEGAHPAPGLGDGHTQGPVSDLCPVTSAQAPRHLQSSAWEMDGPRENRGSFHKSLDQIFETLETKNPSCMEELFSDVDSPYYDLDTVLTGMMGGARPGPCEGLEGLAPATPGPSSSCKSDLGELDHVVEILVET
B16: RBM7 Q142: RBM7, Q142 to alanine (protein, UniProt Q9Y580 2-266, looked up, variant Q142A)
RNA-binding protein 7: GAAAAEADRTLFVGNLETKVTEELLFELFHQAGPVIKVKIPKDKDGKPKQFAFVNFKHEVSVPYAMNLLNGIKLYGRPIKIQFRSGSSHAPQDVSLSYPQHHVGNSSPTSTSPSRYERTMDNMTSSAQIIQRSFSSPENFARQAVMNSALRQMSYGGKFGSSPLDQSGFSPSVQSHSHSFNQSSSSQWRQGTPSSQRKVRMNSYPYLADRHYSREQRYTDHGSDHHYRGKRDDFFYEDRNHDDWSHDYDNRRDSSRDGKWRSSRH
B17: RBM7 R143: RBM7, R143 to alanine (protein, UniProt Q9Y580 2-266, looked up, variant R143A)
RNA-binding protein 7: GAAAAEADRTLFVGNLETKVTEELLFELFHQAGPVIKVKIPKDKDGKPKQFAFVNFKHEVSVPYAMNLLNGIKLYGRPIKIQFRSGSSHAPQDVSLSYPQHHVGNSSPTSTSPSRYERTMDNMTSSAQIIQRSFSSPENFQAQAVMNSALRQMSYGGKFGSSPLDQSGFSPSVQSHSHSFNQSSSSQWRQGTPSSQRKVRMNSYPYLADRHYSREQRYTDHGSDHHYRGKRDDFFYEDRNHDDWSHDYDNRRDSSRDGKWRSSRH
B18: RBM7 V146: RBM7, V146 to alanine (protein, UniProt Q9Y580 2-266, looked up, variant V146A)
RNA-binding protein 7: GAAAAEADRTLFVGNLETKVTEELLFELFHQAGPVIKVKIPKDKDGKPKQFAFVNFKHEVSVPYAMNLLNGIKLYGRPIKIQFRSGSSHAPQDVSLSYPQHHVGNSSPTSTSPSRYERTMDNMTSSAQIIQRSFSSPENFQRQAAMNSALRQMSYGGKFGSSPLDQSGFSPSVQSHSHSFNQSSSSQWRQGTPSSQRKVRMNSYPYLADRHYSREQRYTDHGSDHHYRGKRDDFFYEDRNHDDWSHDYDNRRDSSRDGKWRSSRH

System: PP2A-B55α
Assay: Single alanine mutational scan, YFP-tagged interactors immunoprecipitated from HeLa cells, Western blot
Type: binding, human
Details: single alanine mutant of YFP-tagged CDCA4
Experimental: Standard cloning techniques were used throughout. Point mutations were introduced by whole plasmid polymerase chain reaction (PCR). All constructs were fully sequenced. Synthetic DNA was purchased from GeneArt, Life Technologies and cloned into pcDNA5/FRT/TO (Invitrogen) expression vector containing YFP, resulting in the indicated YFP fusion proteins. These constructs were transiently transfected into HeLa cells 24 hours before harvesting cells. Cells were lysed in lysis buffer [50 mM tris-HCl (pH 7.5), 50 mM NaCl, 1 mM EDTA, 1 mM […], and 0.1% NP-40]. Complexes were immunoprecipitated at 4°C in lysis buffer with green fluorescent protein (GFP)–Trap (ChromoTek) and washed in lysis buffer. Precipitated protein complexes were washed three times in lysis buffer, eluted in 2× SDS sample buffer, and subjected to Western blotting or MS as indicated.

Row | Molecule | Experimental % binding [%]
1 | B1 | 22
2 | B2 | 99
3 | B3 | 82
4 | B4 | 66
5 | B5 | 86
6 | B6 | 37
7 | B7 | 47
8 | B8 | 64
9 | B9 | 28
10 | B10 | 57
11 | B11 | 91
12 | B12 | 7
13 | B13 | 61
14 | B14 | 153
15 | B15 | 42

Same assay, conditions: single alanine mutant of YFP-tagged RBM7

Row | Molecule | Experimental % binding [%]
16 | B16 | 67
17 | B17 | 5
18 | B18 | 7
